According to the nanobody polyreactivity screen of Harvey et al. (2022):

Assay: yeast display, Sf9 membrane polyspecificity reagent, FACS + sequencing; frameworks hold sequencing errors
In short: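 In a synthetic yeast display library (Saccharomyces cerevisiae BJ5465), nanobody expression was induced with galactose for 36–48 hours. FACS gates were set low and high (top ~1%) using anti-HA fluorescence for expression and streptavidin fluorescence for binding of the Sf9 membrane reagent. Each polyreactivity label is drawn from the gate of origin.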

| Sequence | polyreactivity (PSR sort gate) |
| --- | --- |
| KVQLVESGGGLVQAGGSLRLSCAASGSIIGGYAMGWYRQAPGKVRELVAAINRSGGRTYYADSVKGRFTFSRDNAKNTVYLQMNSLKPEDTAVYYCAADNFRGKYDYLGQGTQVTVSS | high polyreactivity |
| QVQLVESGGGLVQAGGSLRLSCAASGRTYRQNAMGWYRQAPGKEGELVAAISSSGTNTHYADSVKGRFTISRDNAKNTVYLQMTSLKPEDTAVYYCAADSWGARRKQYHENGYWGQGSQVTVSS | high polyreactivity |
| QVQLVESGGGLVQAGGSLRLSCAASGRTFLYNAMGWYRQAPGKERELVASLTRRGGTTYYADSVKGRFTISRDFAKNNVYFQMISLKPEVTAVYYCNAQPGISYYYYGHWYGYWGQGTQVTVSS | high polyreactivity |
| QVQLVESGGGLVQAGGSLSISCASSGRNFGANAMGLYRQAPGKERELVAVITGGGGTYYADSVKGRFTISRDNAKNTVYLQMNSLKPEDTAVYYCDWPRYYYTYPSHPMDYWGQGTQVTVSS | low polyreactivity |
| QVHLVESGRGLVQAGGSLRLSCAASGSTFKIYAMGWYRPAPAKERELVAAITRGGSTNYADSVKGRFTISRDTAKKTVYLQMNSLKPEDTAVYSFAASYWYRRYGTYSYDYWGHGTQVTVSS | high polyreactivity |
| QVHLVESGGGLVQAGGSLRLSCAASGLTFGRNAMGWYRQAPGKERELVAVISRSGGSTYYADSVKGRFTISRDNAQNTVYLQMNSLKPEDTAVYYCAAGAYSYRKYRSYDYWGQGTQVNVSS | high polyreactivity |
| QVQLVESGGGLVQPGGSLRLSCAASGIIFDVYAMGWYRQAPGKERELVAGISSGGSTYYADSVKGRFTISRDNAKNTVYFQMNSLKPEDTAVYYCNADGGYSYESTDHYGYDYWGQGTQVTVSS | low polyreactivity |
| QVQLVESGGGLVQAGGSLRLSCAASGSIFYYNAMGWYRQAPGKERELVAAISWGDGITYYADSVKGRFTISRDNAKNTVYLQMNSLKPEDTAVYYCAVDYYYLPYEYWGQGTQVTVSS | high polyreactivity |
| QVQLVESGGGLVQAGGSLRLSCAASGLTFAYYAMGWYIQAPGKERELVAAITWNGGSTYYADSVKGRFTISRDNSKNTVYLQMNSLKPEDTAVYYCAASWGYCYSGRFDYWGQGTEVTVSS | high polyreactivity |
| QVHLVESGGGLVQAGGSLRISCAASGFTFVWYAMGWYRPPPGKERELVAALSRRGTRTYYADSVKGRFSISRDNAKNTVYLQMNSLKPEDTAVYYSAASNGYEAVTYDYWGQGTQVTVSS | high polyreactivity |
| QVQLVESGGGLVQAGGSLRLSCAASGITLSIYAMGWYRQAPGKERELVAAINGNGGSTYYADSVKGRFTISRDNAKNTVYLQMNSLKPEDTAVYYCAVTDYVYEHDDYWGQGTQVTVSS | low polyreactivity |
| QVQLVESGGGLVQAGGSLRLSCAASGRTFFPYPRGCYRQAPGTDREFFAAITWSGGSTTYADSVKGRFTISRDNAKNTVYLQMNSLKPEDTAVYYCNAGRRRSYSYDYWGQGTQVTVSS | low polyreactivity |
| QVQLVESGGGLVQAGGSLRLSCAASGRIFYRNAMGWYRQAPGKERELVASITSGGRTNYADSVKGRFTISRDNAKNTVYLQMNSLKPEDTAVYYCAAPPPYSVRTFRFYYWGQGTQVTVSS | high polyreactivity |
| QVQLVESGGGLVQAGGSLRLSCDASGSIFKLNAMGWYRQAPGKERELVAAITSSGDSTYYADSVKGRFTISRDNAKNTVYLQMNSLKPEDTAVFYCNREDAGIMDYWGQGTHVTVSS | low polyreactivity |
| QVQLVESGGGLVQAGGSLRISCAASGIIFVWNAIGWYRQAPGKERELVADISWSSGRTYYADSVKGRFTISRDNAKNTVYLQMNSLIPEDTAVYYCATDDFWNVIFYAYYPEFDYWGQGTQVTVSS | low polyreactivity |
| QVQLVESGGGLGQAGGSLRLSCAASGFTFVFYAMGWYRQAPGKERELVAGISRTGGSTYYADSVKGRFTISRDNAKNTVYLQMNSLKPEDTAVYYCAAVSRGFGSRGYDYWGQGTQVTVSS | high polyreactivity |

| Sequence | polyreactivity (PSR sort gate) |
| --- | --- |
| QVQLVESGGGLVQAGGSLRLSCAASGFTFSYYALGWYRQAPGKERELVAVISDRGGITYYADSVKGRFTISRDNAKNTVYLQMNSRKPEDTAVYYCAAQNPRYNYRYYYWGQGTQVTVSS | low polyreactivity |
| QVQLVESGGGLVQAGGSLRLSCADSGSTFLYYGMGWYRQAPGKERELVAGIDGTGSSTYYADSVKGRFTISRDNAKNTVYLQMNSLKPEDTAVYYCAKRYPRYRSRYYYWGQGTQVTVSS | low polyreactivity |
| QVQLVESGGGLVQAGGSLRLSCAASGYTFVNYAMGWYRQAPGKERELVAAITSRGSSTYYADSVKGRFTISRDNAKNTVYLQMKSLKPEDTAVYYCFVHVRNHDYWGQGTQVTVSS | high polyreactivity |
| QVQLVESGGGLVQAGGSLRLSCAASGFTFRGNAMGWYRQAPGKERELVATISRGGNTNYADSVKGRFTISRDNAKNTVYLQMNSLKPEDTAVYYCAAVSYIRSKVAYNYWGQGTQVTVSS | low polyreactivity |
| QVQLVESGGGLVQAGGSLRLSCAASGFIFGSNAMGWYRQAPGKERELVAAISRSGGSTYYADSVKGRFTISRDNAKNTVYLQMNSLKPEHTAVYYCASYLYKSRYLPEYDYWGQGTQVTVSS | high polyreactivity |
| QVQLVESGGGLDQAGGSLRLSCAASGGTFSNYAMGWYRQATGKERELVAAISESGGSTYYADSVKGRFTISRDNAKNTVYLQMNSLKPEDTAVYYCAVGTRFYVPRRFDYWGQGSQVTVSS | high polyreactivity |
| QVHLVESGGGIVQAGGSLRLSCAASGRTFVVYAMGWYRPATGKQLELVAAIRRIDGRTYYADSVKGRFTISRDNAKNTVYLQMNCLKPEDTAVYYCAADWVGATGYLYGYWGQGNQVTVSS | low polyreactivity |
| QVQLVESGGGLVQAGGSLRLSCAASGSTSGSYGMGWYRQAPGKERELVAAIRWSGGRTYYADSVKGRFTISRDNAKNTVYLQMNSLKPEDTAVYYCAKYRYTVAGYNYWGQGTQVTVSS | high polyreactivity |
| QVQLVESGGGLVQAGGSLRLSCAASGRIFTHNAMGWYRQAPGKERELVAAITIGGRTNYADSVKGRFTISRDNAKNTVYLQMNSLKPEDTAVYYCARRYGTWNAYDYWGQGTQVTVSS | low polyreactivity |
| QVQLVESGGGLVQAGRSLRLTCAASGSIFYYYAMGWYRQAPGNERELVAAISSGGRTYYADSVKGRFTISRENANNNVYLQMKSLKTEDTAVYYCAASGGSYSVGRYYYWGQGSQVTVSS | high polyreactivity |
| QVQLVESGGGLVQAGGSLRLSCAASGRTIRWNAMGWYRPAPGKERELVAAITSRGGSTYYADSVKGRFTISRDNAKNTVYLQMNSLKPEDTAVYYCAARRRSAQSGSYNHWGQGTQVTVSS | high polyreactivity |
| QVQLVESGGGLDQAGGSLRLSCVASGSIFRGNAMGWYRQAPGKERELVASISKGGGSTYYADSVKGRFIISRDNAKNTVYLQMNSLKPEDTAVYYCNAQFYNSGWSFKYYYWGQGTQVTVSS | low polyreactivity |
| QVQLVESGGGLVQAGGSLRLSCAASGSTFYLYAMGWYRQAPGKEREFVAAITYSAGSTYYADSVKGRFTISRDNAKNTVYLQMNSLKPEDTAVYYCAARHYAVRRSRYPGKLGYYWGQGTQVTVSS | high polyreactivity |
| QVQLVESGGGLVQAGGSLRLSCAASGITFVFYTMGWYRQAPGKETELVAAISRSGASTYYADSVKGRFTISRDNAKNTVYLQMNSLKPEDTAVYYCAADRGYRFRMDYWGQGTQVTVST | high polyreactivity |
| QVQLVESGGGLVQAGGSLRLSCAASGRIYASYVMGWYRQAPGKERELVAAISYGGSRTYYADSVKGRFTISRDNAKNTVYLQMNSLKPEDTAVYYCAAKKYTNRGYYYWGQGTQVTVSS | high polyreactivity |
| QVQLVESGGGLVQAGGSLRLSCAASGSTFAYYAMGWYRQAPGKERELVAAITRSTGRTYYADSVKGRFTISRDNAKNTVYLQMNSLKPEDTAVYYCAKTYGYRQPGDYWGQGTLVTVSS | high polyreactivity |
